B1: TFE3 (parent)
chain: FHLGLEDILMEEEEGVVGGLSGGA

Variants of: B1
Experiment: protein stability index of a GFP-peptide fusion (GPS, HEK-293T) (PSI 1-6); higher = more stable
Settings: c terminus: a fixed tail appended
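Note: lentivirally expressed fusions sorted by FACS into six bins by GFP to DsRed ratio, PSI derived from sequencing read proportions per bin multiplied by bin number.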

Going from FHLGLEDILMEEEEGVVGGLSGTA to FHLGLEDILMEEEEGVVGGLSGQA, the protein stability index rises from 3.56 to 3.89.

First: FHLGLEDILMEEEEGVVGGLSGFA
Second: FHLGLEDILMEEEEGVVGGLSGEA
The protein stability index of the first is lower: 2.7 for the first, 4.87 for the second.

Going from FHLGLEDILMEEEEGVVGGLSGAA to FHLGLEDILMEEEEGVVGGLSGWA, the protein stability index falls from 3.37 to 2.15.

Going from FHLGLEDILMEEEEGVVGGLSGRA to FHLGLEDILMEEEEGVVGGLSGPA, the protein stability index rises from 3.29 to 4.

Going from FHLGLEDILMEEEEGVVGGLSGNA to FHLGLEDILMEEEEGVVGGLSGSA, the protein stability index falls from 3.96 to 3.52.

Compared with FHLGLEDILMEEEEGVVGGLSGKA, FHLGLEDILMEEEEGVVGGLSGIA is lower in protein stability index: 3.89 for the first, 3.17 for the second.

First: FHLGLEDILMEEEEGVVGGLSGLA
Second: FHLGLEDILMEEEEGVVGGLSGGF
The protein stability index of the first is higher: 3.58 for the first, 2.39 for the second.

Compared with FHLGLEDILMEEEEGVVGGLSGGL, FHLGLEDILMEEEEGVVGGLSGGQ is higher in protein stability index: 2.94 for the first, 4.24 for the second.

First: FHLGLEDILMEEEEGVVGGLSGGD
Second: FHLGLEDILMEEEEGVVGGLSGGV
The protein stability index of the first is higher: 4.17 for the first, 3.74 for the second.

First: FHLGLEDILMEEEEGVVGGLSGGP
Second: FHLGLEDILMEEEEGVVGGLSGGK
The protein stability index of the first is lower: 3.07 for the first, 3.98 for the second.

First: FHLGLEDILMEEEEGVVGGLSGGN
Second: FHLGLEDILMEEEEGVVGGLSGGE
The protein stability index of the first is lower: 3.65 for the first, 3.9 for the second.

Compared with FHLGLEDILMEEEEGVVGGLSGGH, FHLGLEDILMEEEEGVVGGLSGGT is higher in protein stability index: 3.25 for the first, 3.52 for the second.

Compared with FHLGLEDILMEEEEGVVGGLSGGR, FHLGLEDILMEEEEGVVGGLSGGM is lower in protein stability index: 3.86 for the first, 3.12 for the second.

First: FHLGLEDILMEEEEGVVGGLSGGY
Second: FHLGLEDILMEEEEGVVGGLSGGI
The protein stability index of the first is higher: 2.68 for the first, 2.66 for the second.

Compared with FHLGLEDILMEEEEGVVGGLSGGC, FHLGLEDILMEEEEGVVGGLSGGW is lower in protein stability index: 3.73 for the first, 1.75 for the second.

Compared with FHLGLEDILMEEEEGVVGGLSGGS, FHLGLEDILMEEEEGVVGGLSGGG is higher in protein stability index: 3.82 for the first, 4.32 for the second.

Going from FHLGLEDILMEEEEGVLGGLSGGA to FHLGLEDILMEEEEGVSGGLSGGA, the protein stability index rises from 3.61 to 4.13.

Going from FHLGLEDILMEEEEGVHGGLSGGA to FHLGLEDILMEEEEGVYGGLSGGA, the protein stability index falls from 3.7 to 3.03.

First: FHLGLEDILMEEEEGVAGGLSGGA
Second: FHLGLEDILMEEEEGVNGGLSGGA
The protein stability index of the first is lower: 3.54 for the first, 4.76 for the second.

Compared with FHLGLEDILMEEEEGVDGGLSGGA, FHLGLEDILMEEEEGVEGGLSGGA is lower in protein stability index: 4.44 for the first, 3.64 for the second.

First: FHLGLEDILMEEEEGVRGGLSGGA
Second: FHLGLEDILMEEEEGVIGGLSGGA
The protein stability index of the first is lower: 3.8 for the first, 3.92 for the second.

Going from FHLGLEDILMEEEEGVMGGLSGGA to FHLGLEDILMEEEEGVFGGLSGGA, the protein stability index falls from 3.46 to 2.88.

Going from FHLGLEDILMEEEEGVQGGLSGGA to FHLGLEDILMEEEEGVCGGLSGGA, the protein stability index rises from 3.69 to 4.01.

Going from FHLGLEDILMEEEEGVWGGLSGGA to FHLGLEDILMEEEEGVPGGLSGGA, the protein stability index rises from 2.72 to 3.63.

First: FHLGLEDILMEEEEGVGGGLSGGA
Second: FHLGLEDILMEEEEGVTGGLSGGA
The protein stability index of the first is lower: 3.15 for the first, 3.95 for the second.

Compared with FHLGLEDILMEEEEGVKGGLSGGA, FHLGLEDILMEEEEGWVGGLSGGA is lower in protein stability index: 3.77 for the first, 3.33 for the second.

Compared with FHLGLEDILMEEEEGTVGGLSGGA, FHLGLEDILMEEEEGYVGGLSGGA is lower in protein stability index: 4 for the first, 3.34 for the second.

Going from FHLGLEDILMEEEEGRVGGLSGGA to FHLGLEDILMEEEEGSVGGLSGGA, the protein stability index rises from 3.52 to 3.82.

Going from FHLGLEDILMEEEEGVVGGLSVGA to FHLGLEDILMEEEEGVVGGLSCGA, the protein stability index falls from 3.9 to 3.3.

Going from FHLGLEDILMEEEEGVVGGLSMGA to FHLGLEDILMEEEEGVVGGLSHGA, the protein stability index rises from 3.59 to 3.8.

First: FHLGLEDILMEEEEGVVGGLSDGA
Second: FHLGLEDILMEEEEGVVGGLSRGA
The protein stability index of the first is higher: 3.5 for the first, 3.39 for the second.

Compared with FHLGLEDILMEEEEGVVGGLSFGA, FHLGLEDILMEEEEGVVGGLSSGA is higher in protein stability index: 3.34 for the first, 3.57 for the second.

Compared with FHLGLEDILMEEEEGVVGGLSQGA, FHLGLEDILMEEEEGVVGGLSIGA is lower in protein stability index: 3.67 for the first, 3.19 for the second.

First: FHLGLEDILMEEEEGVVGGLSEGA
Second: FHLGLEDILMEEEEGVVGGLSLGA
The protein stability index of the first is higher: 4.01 for the first, 3.31 for the second.

First: FHLGLEDILMEEEEGVVGGLSAGA
Second: FHLGLEDILMEEEEGVVGGLSNGA
The protein stability index of the first is higher: 3.81 for the first, 3.72 for the second.

Compared with FHLGLEDILMEEEEGVVGGLSWGA, FHLGLEDILMEEEEGVVGGLSTGA is higher in protein stability index: 2.85 for the first, 4.26 for the second.

First: FHLGLEDILMEEEEGVVGGLSYGA
Second: FHLGLEDILMEEEEGVVGGLSPGA
The protein stability index of the first is lower: 2.28 for the first, 3.64 for the second.

Going from FHLGLEDILMEEEEGVVGGLSKGA to FHLGLEDILMEEEEGVVRGLSGGA, the protein stability index falls from 4.05 to 3.72.

Compared with FHLGLEDILMEEEEGVVEGLSGGA, FHLGLEDILMEEEEGVVFGLSGGA is lower in protein stability index: 4.1 for the first, 2.77 for the second.

Going from FHLGLEDILMEEEEGVVTGLSGGA to FHLGLEDILMEEEEGVVIGLSGGA, the protein stability index falls from 3.5 to 3.35.

First: FHLGLEDILMEEEEGVVMGLSGGA
Second: FHLGLEDILMEEEEGVVCGLSGGA
The protein stability index of the first is lower: 3.6 for the first, 3.76 for the second.

Going from FHLGLEDILMEEEEGVVSGLSGGA to FHLGLEDILMEEEEGVVPGLSGGA, the protein stability index rises from 3.27 to 3.85.

Going from FHLGLEDILMEEEEGVVDGLSGGA to FHLGLEDILMEEEEGVVWGLSGGA, the protein stability index falls from 4.06 to 3.06.

First: FHLGLEDILMEEEEGVVQGLSGGA
Second: FHLGLEDILMEEEEGVVNGLSGGA
The protein stability index of the first is higher: 4.23 for the first, 3.77 for the second.

Compared with FHLGLEDILMEEEEGVVHGLSGGA, FHLGLEDILMEEEEGVVYGLSGGA is lower in protein stability index: 3.66 for the first, 3.23 for the second.

Compared with FHLGLEDILMEEEEGVVVGLSGGA, FHLGLEDILMEEEEGVVLGLSGGA is lower in protein stability index: 3.93 for the first, 3.3 for the second.

First: FHLGLEDILMEEEEGVVKGLSGGA
Second: FHLGLEDILMEEEEGVVAGLSGGA
The protein stability index of the first is lower: 2.99 for the first, 3.64 for the second.

Reference: the supplement of paper PMC10567573
